Here are results for 30 sequences from the nanobody polyreactivity screen of Harvey et al. (2022).

The data set is described as follows: yeast display, Sf9 membrane polyspecificity reagent, FACS + sequencing; frameworks hold sequencing errors. Put shortly:
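Genes from sorted yeast were amplified by colony PCR, read by MiSeq 2 × 250 sequencing and filtered on CDR length. These cells carried a synthetic nanobody library in Saccharomyces cerevisiae BJ5465 and were sorted by FACS into low and high (top ~1%) gates on anti-HA and streptavidin fluorescence. Polyreactivity is labelled according to the gate of origin.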
Consider “QVQLVESGGGLVQAGGSLRLSCAASGFTFAPNAMAWYRQAPGKERELVAAITWSGGSTYYADSVKGRFTISRDNAKNTVYLQMNSLKPEDTAVYYCNAVSRSTVTGQHDYWGQGTQVTVSS”, for which the “polyreactivity (PSR sort gate)” value is given as “high polyreactivity”.
Consider “QVQLVESGGGLVQAGGSLRLSCAASGFTFAPNAMGWYRPAPGKEWELVAAISSASSTYYADSVKGRFTISRDNAKYNVYLQMKSLLPEDTAVYYCNAYYWFGPGRDYWGQGTQVTVSS”, for which the “polyreactivity (PSR sort gate)” value was “high polyreactivity”.
In the case of “QVQLVESGGGLVQAGGSLRLSCAASGFTFAPYAMGWYRQAPGKERELVAAISSNGGSTYYADSVKGRFTISRDNAKNTVYLQMISMKPEYTAVYYCAVTSIGYTRYYYWGHGTQVTVSS”, the “polyreactivity (PSR sort gate)” value is on record as “high polyreactivity”.
In the case of “QVQLVESGGGLVQAGGSLRLSCAASGFTFAQYTMGWYRQAPGKERELVAAIRVGGGSTYYADSVKGRFTISRDNAKNTVYLQMNSLKPEDTAVYYCAKRTYSRKFRGAYNYWGQGTQVTVSS”, the “polyreactivity (PSR sort gate)” value is given as “high polyreactivity”.
In the case of “QVQLVESGGGLVQAGGSLRLSCAASGFTFARNAMGWYRPAPGKERELVAGITSRGSSTSYADSVKGRFTISRDNAKNTVYLQMNSLKPEDTAVYYSAADRYSAYLYWDEYWGQGTQVTVSS”, the “polyreactivity (PSR sort gate)” value is recorded as “high polyreactivity”.
As for “QVQLVESGGGLVQAGGSLRLSCAASGFTFARYAMGWYRQAPGKEREFVAAIDKSGGSTYYADSVKGRFTISRDNAKNTVYLQMNSLKPEDTAVYYCAAVYSSYGRRYNSWGQGTQVTVSS”, the entry is “high polyreactivity”; as for “QVQLVESGGGLVQAGGSLRLSCAASGFTFARYAMGWYRQAPGKERELVAAISISGGRTYYADSVKGRFSISRDNAKNTVYLQMNSLKPEDTAVYYCNKGHVPSYDYNYWGQGTQVTVSW”, “high polyreactivity”; as for “QVQLVESGGGLVQAGGSLRLSCAASGFTFARYAMGWYRQAPGKERELVAAITYSGGRTYYAVSVKGRFTISRDNAKNTVYLQMNSLKPEDTAVYYCAVKHSSPGRYYYWGQGTQVTVSS”, “high polyreactivity”.
Regarding “QVQLVESGGGLVQAGGSLRLSCAASGFTFARYAMGWYRQAPGKERELVAAMTYRGGSTYYADSVKGRFTISRDNAKNTVYLQMNSLKPEDTAVYYCNAGRLWFPGVPEYDYWGQGTQVTVSS”, the “polyreactivity (PSR sort gate)” value is “high polyreactivity”.
For “QVQLVESGGGLVQAGGSLRLSCAASGFTFARYTMGWYRQAPGKERELVAAISSRGSSTYYADSVKGRFTISRDNAKNTVFLQMNSLKPEDTAVYYCAASPYDTQSLDYDYWGQGTQVTVSS”, the “polyreactivity (PSR sort gate)” value is given as “high polyreactivity”.
On to “QVQLVESGGGLVQAGGSLRLSCAASGFTFARYTMGWYRQAPGKERELVAAISSRGSSTYYADSVKGRFTISRDNAKNTVYLQMNSLKPEDTAVYYCAASPYDTQTLDYAYWGQGTQVTVSS”, for which the “polyreactivity (PSR sort gate)” value is on record as “high polyreactivity”.
For “QVQLVESGGGLVQAGGSLRLSCAASGFTFATYAMGWYRQAPGKKGRLVAAISNAGSTKYADSVKGRFTISRDNAKNTVYLQMNSLKPEDTAVYYCAASTLYASSYYLYDYWGQGTQVTVSS”, the “polyreactivity (PSR sort gate)” value is on record as “high polyreactivity”.
As for “QVQLVESGGGLVQAGGSLRLSCAASGFTFAVYAMGWYRQAPGKERELVAAISRSGTRTYYADSVKGRFTISRDNAKNTVYLQMNSLKPEDTAVYYCAAPWTQILDYWGQGTQVTVSS”, the entry is “low polyreactivity”; as for “QVQLVESGGGLVQAGGSLRLSCAASGFTFAYNAMGWYRQAPGKERELDAAINSSGGTTYYADSVKGRFTISRDNAKNTVYLQMNSLKPEDTAVYYCAAVYSTSYSGSFPGYDYWGQGTQVTVSS”, “low polyreactivity”; as for “QVQLVESGGGLVQAGGSLRLSCAASGFTFAYYAMGWDRQSPGNEREFVAAISSRGGSTYADSVKGRFTISRDNAKNTVYLQMNSLKPEDTAVYYCNAVVPRSRYFSWTYDYWGQGTQVTVSS”, “high polyreactivity”.
In the case of “QVQLVESGGGLVQAGGSLRLSCAASGFTFAYYAMGWYRPAPGKERELVATIRGGGSTNYADSVKGRFTISRDNAKNTVYLQMNSLKPEDTAVYYCAAGYVWYFDYFSAYYWGQGTQVTVSS”, the “polyreactivity (PSR sort gate)” value is reported as “high polyreactivity”.
Regarding “QVQLVESGGGLVQAGGSLRLSCAASGFTFAYYAMGWYRQAPGKERELVAAISWTGGSTYYADSVKGRFTISRDNAKNTVYLQMNSLKPEDTAVYYCAARGYRYRSYDYWGQGTQVTVSS”, the “polyreactivity (PSR sort gate)” value is “high polyreactivity”.
As to “QVQLVESGGGLVQAGGSLRLSCAASGFTFAYYAMGWYRQAPGKERELVAAITGSGGRTYYADSVKGRFTISRDNAKNTVYLQMNSLKPEDTAVYYCAADRTVYYLSRTGYDYWGQGTQVTVSS”, the “polyreactivity (PSR sort gate)” value is reported as “high polyreactivity”.
The entry for “QVQLVESGGGLVQAGGSLRLSCAASGFTFAYYAMGWYRQAPGKERELVAAITVSGASTYYADSVKGRFTISRDNAKNTVYLQMNSLKPEDTAVYYCNASSVSFYYLEPSQPMDYWGQGTQVTVSS” is “high polyreactivity”; for “QVQLVESGGGLVQAGGSLRLSCAASGFTFAYYDMGWYRQAPGKERELVAAITWDGGSTYYADSVKGRFTISRDNAKNTVYLQMNSLKPEDTAVYYCAAPSGPYGYDYWGQGTQVTVSS” it is “high polyreactivity”.
As to “QVQLVESGGGLVQAGGSLRLSCAASGFTFCDYAKGWYRQATGKERELVAAISDNDGSTDYADSVKGRFTISRDNAKNTVYLQMTRLKPEDSAVYYCNAESELPSKEGDYWGLGTQVTVSS”, the “polyreactivity (PSR sort gate)” value is recorded as “low polyreactivity”.
On to “QVQLVESGGGLVQAGGSLRLSCAASGFTFDDYTMGWYRQAPGKEREFVAAISSSGGSTYYADSVKGRFTISRDNAKNTVYLQMNSLKPEDTAVYYCAADARYYDYYEYDYWGQGTQVTVSS”, for which the “polyreactivity (PSR sort gate)” value is reported as “high polyreactivity”.
For the sequence “QVQLVESGGGLVQAGGSLRLSCAASGFTFDFYAMGWYRQAPGKERELVATISYSGASTYYADSVKGRFTISRDNAKNTIYLQLNSLKPEDTAVYYCNAESSYYYGTAAYEYWGQGTQVTVSS”, the “polyreactivity (PSR sort gate)” value is “low polyreactivity”.
Consider “QVQLVESGGGLVQAGGSLRLSCAASGFTFDFYAMGWYRQAPGKERELVAVISSSGRTYYADSVKGRFTISRDNAKNTVYLQMNSLKPEDTAVYYCAAKAKRGHTYDYWGQGTQVTVSS”, for which the “polyreactivity (PSR sort gate)” value is recorded as “high polyreactivity”.
“QVQLVESGGGLVQAGGSLRLSCAASGFTFDGYAMGWYRQAPGKERELVAAISDSGDSTYYADSVKGRFTISRDNAKNTVYLQMNSLKPEDTAVYYCNADAYGTPEFTSYAVRYDYWGQGTQVTVSS”: the “polyreactivity (PSR sort gate)” value was “low polyreactivity”.
Consider “QVQLVESGGGLVQAGGSLRLSCAASGFTFDIYGMGWYRQAPGNERDLVASITSRSARTYYAYSVKGRFTISRDNAKNTVYLQMNSLKPEDTAVYYCAAYYWQCTYDSRRTGWRLMNYWGQGTQVTVSS”, for which the “polyreactivity (PSR sort gate)” value is “high polyreactivity”.
As to “QVQLVESGGGLVQAGGSLRLSCAASGFTFDKKVMGWYRLAPGKERELVAANSVRGGTTYYADSVKGRFTISRDYAKNTVYLQMNSLKPEDSAVYDCAARAYGPPARYESWGQGTQVTVSS”, the “polyreactivity (PSR sort gate)” value was “low polyreactivity”.
With “QVQLVESGGGLVQAGGSLRLSCAASGFTFDPYAMGWYRQAPGKERELVAAIDYSGGTTYYADSVKGRFTISRDNAKNTVYLQMNSLKPEDTAVYYCAAEYTYYHWWGYDYWGQGTQVTVSS”, the “polyreactivity (PSR sort gate)” value was “high polyreactivity”.
Take “QVQLVESGGGLVQAGGSLRLSCAASGFTFDQYAMGWYRQAPGKEREFVAAINQSTGSTYYADSVKGRFTISRDNAKNTVYLQMISLKPEDTAVYYCAAEESSTSSEYDYWGQGTQVTVSS”: the “polyreactivity (PSR sort gate)” value was “low polyreactivity”.
Take “QVQLVESGGGLVQAGGSLRLSCAASGFTFDSNAMGWYRQAPGKERELVAAISASGDSTYYADSVKGRFTISRDNAKNTVYLQMNSLKPEDTAVYYCAADRFYGGWRFDHWGQGTQVTVSS”: the “polyreactivity (PSR sort gate)” value was “low polyreactivity”.
